These are literature values, as cited in PMC9836085.

pKd: −log10 of the molar value.

Data set [1] addresses Rab6 (Drosophila melanogaster) (UniProt O18334).
The target in data set [2] is Sas6 (Drosophila melanogaster) (UniProt Q9VAC8).
Chain of UniProt Q9VAC8 (Q9VAC8 whole entry): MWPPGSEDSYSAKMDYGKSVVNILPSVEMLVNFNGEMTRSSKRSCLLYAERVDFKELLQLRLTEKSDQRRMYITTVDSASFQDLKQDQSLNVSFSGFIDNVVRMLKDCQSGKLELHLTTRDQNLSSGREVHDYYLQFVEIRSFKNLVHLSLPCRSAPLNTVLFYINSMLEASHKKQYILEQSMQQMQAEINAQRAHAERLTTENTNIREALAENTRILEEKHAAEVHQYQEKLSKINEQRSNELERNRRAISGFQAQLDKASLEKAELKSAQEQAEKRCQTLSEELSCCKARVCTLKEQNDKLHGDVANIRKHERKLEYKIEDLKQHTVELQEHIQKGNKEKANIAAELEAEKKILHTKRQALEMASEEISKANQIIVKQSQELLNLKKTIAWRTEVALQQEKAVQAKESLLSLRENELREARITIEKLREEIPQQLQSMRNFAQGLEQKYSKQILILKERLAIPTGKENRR

Chain of UniProt O18334 (O18334 whole entry): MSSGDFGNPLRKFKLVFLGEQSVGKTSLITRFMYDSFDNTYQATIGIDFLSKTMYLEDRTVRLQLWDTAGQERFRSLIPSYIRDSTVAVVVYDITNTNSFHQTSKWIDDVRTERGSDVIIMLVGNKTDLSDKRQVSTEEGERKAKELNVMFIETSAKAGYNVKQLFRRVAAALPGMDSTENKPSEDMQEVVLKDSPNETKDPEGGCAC

Turning to Gorab (from UniProt Q8IQQ4), the pKd in data set [1] was 5.65; in data set [2], 7.33.

The term pKd denotes −log10 of the Kd, conventionally taken in molar units.
